Data published in patent US20170247448A1 (INTRINSIC LIFESCIENCES, published 2017).
Ends that are not written are not given here.

Assays:
[1] = biological target: T1, Human hepcidin peptide (hepcidin-25) (human); test: cell-based or functional assay
T1 peptide: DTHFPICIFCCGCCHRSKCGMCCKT

[2] = biological target: T1, Human hepcidin peptide (hepcidin-25); test: cell-based or functional assay
NT-biotin hepcidin-25 [3] = biological target: T2, NT-biotin hepcidin-25 (human, NT-biotin (biotin at the N-terminus)); test: SPR, Biacore, biotin peptide on neutravidin chip, MAb 583 at 5 µg/ml
T2 construct: also called NT-biotin hepcidin-25 tracer; NT-Bio Tracer
T2 peptide: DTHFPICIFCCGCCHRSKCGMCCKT

K18-biotin hepcidin-25 [4] = biological target: T3, K18-biotin hepcidin-25 (human, K18-biotin (biotin on Lys 18)); test: as above
T3 construct: also called K18-biotin hepcidin-25 tracer
T3 peptide: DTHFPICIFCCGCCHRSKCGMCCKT

Mouse hepcidin-1 peptide = biological target: T4, Mouse hepcidin-1 peptide (mouse); test: competition ELISA on MAb 583 coated plate, NT-biotin hepcidin-25 tracer
T4 construct: also called mouse hepcidin-25; murine hepcidin-1
T4 peptide: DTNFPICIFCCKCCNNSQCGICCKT
From the text: (§1) Competition was detected by streptavidin-HRP with the substrate tetramethylbenzidine; the color reaction was stopped with 0.5 N H₂SO₄ and the optical density of the solution read at 450 nm wavelength.
(§2) Binding of biotinylated hepcidin-25 analogs and detection of bound NT-biotin hepcidin-25 was used to detect relative degree of binding of each of the hepcidin peptides relative to hepcidin-25 (data not shown).

[5] = biological target: T5, Human hepcidin 10-25 peptide (human, also: oxidized peptide); test: as above
T5 construct: also called hep 10-25; Hep 10-25
T5 peptide: CCGCCHRSKCGMCCKT
From the text: as §1, §2

NT-biotin hepcidin-25 [6] = biological target: T2, NT-biotin hepcidin-25; test: SPR, Biacore 3000, biotin peptide on neutravidin CM5 chip, MAb 583 injected at 24 µg/ml, 25 C
Description: (§3) Biotinylated hepcidin peptides (NT-biotin-hepcidin-25, K18-biotin-hepcidin-25 and K24-biotin-hepcidin-25) were immobilized in flow cells 2-4 (one peptide species per flow cell) by injecting individual peptides at a concentration of 200 μg/ml at a flow rate of 5 μl/min, for 20 min.
(§4) After 3 minutes, injection was stopped and dissociation was followed for 6 min. Regeneration was performed by injecting 10 mM glycine HCl, pH 1.5 at a flow rate of 10 μl/min for 1 min.

K18-biotin hepcidin-25 [7] = biological target: T3, K18-biotin hepcidin-25; test: as above
Description: as §3, §4

K24-biotin hepcidin-25 [8] = biological target: T6, K24-biotin hepcidin-25 (human, K24-biotin (biotin on Lys 24)); test: as above
T6 construct: also called K24-biotin hepcidin-25 tracer
T6 peptide: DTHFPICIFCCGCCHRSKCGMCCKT
Description: as §3, §4

[9] = biological target: T1, Human hepcidin peptide (hepcidin-25); test: antibody titering ELISA, hepcidin 100 ng/well on plate, HRP-goat anti-mouse IgG; antibody 25 ng/well
[10] = biological target: T1, Human hepcidin peptide (hepcidin-25); test: antibody titering ELISA, hepcidin 100 ng/well on plate, HRP-goat anti-mouse IgG; antibody 50 ng/well
[11] = biological target: T1, Human hepcidin peptide (hepcidin-25); test: antibody titering ELISA, hepcidin 100 ng/well on plate, HRP-goat anti-mouse IgG; antibody 100 ng/well
[12] = biological target: T1, Human hepcidin peptide (hepcidin-25); test: antibody titering ELISA, hepcidin 100 ng/well on plate, HRP-goat anti-mouse IgG; antibody 12.5 ng/well
NT-biotin hepcidin-25 [13] = biological target: T2, NT-biotin hepcidin-25; test: SPR (Biacore 3000, CM5 chip, 25 °C): biotinylated peptide captured on immobilised neutravidin, MAb 583 injected at 5 µg/ml (33.5 nM per the table)
K18-biotin hepcidin-25 [14] = biological target: T3, K18-biotin hepcidin-25; test: as above
K18-biotin hepcidin-25 [15] = biological target: T3, K18-biotin hepcidin-25; test: SPR, Biacore 3000, biotin peptide on neutravidin CM5 chip, MAb 583 injected at 24 µg/ml, 25 C; hepcidin-25 biotinylated at K18 (K18-biotin) on the chip; MAb 583 at 24 µg/ml
Description: as §3, §4

K24-biotin hepcidin-25 [16] = biological target: T6, K24-biotin hepcidin-25; test: SPR, Biacore 3000, biotin peptide on neutravidin CM5 chip, MAb 583 injected at 24 µg/ml, 25 C; hepcidin-25 biotinylated at K24 (K24-biotin) on the chip; MAb 583 at 24 µg/ml
Description: as §3, §4

NT-biotin hepcidin-25 [17] = biological target: T2, NT-biotin hepcidin-25; test: SPR (Biacore 3000, CM5 chip, 25 °C): biotinylated peptide captured on immobilised neutravidin, MAb 583 injected at 5 µg/ml (33.5 nM per the table); column head 'Kd (1/s)'
K18-biotin hepcidin-25 [18] = biological target: T3, K18-biotin hepcidin-25; test: as above
NT-biotin hepcidin-25 [19] = biological target: T2, NT-biotin hepcidin-25; test: SPR (Biacore 3000, CM5 chip, 25 °C): biotinylated peptide captured on immobilised neutravidin, MAb 583 injected at 5 µg/ml (33.5 nM per the table); column head 'Ka (1/Ms)'
K18-biotin hepcidin-25 [20] = biological target: T3, K18-biotin hepcidin-25; test: as above
NT-biotin hepcidin-25 [21] = biological target: T2, NT-biotin hepcidin-25; test: SPR, Biacore 3000, biotin peptide on neutravidin CM5 chip, MAb 583 injected at 24 µg/ml, 25 C; hepcidin-25 biotinylated at the N-terminus (NT-biotin) on the chip; MAb 583 at 24 µg/ml
Description: as §3, §4

B1: MAb 583 (antibody, V domains shown)
VH: QIQLVQSGPELKKPGETVKISCKASGYTFTNYGMNWVKQAPGKGLKWMGWINTYTGEPTYADDFKGRFAFSLETSASTAYLQINNLKNEDTATYFCTTYATSWYWGQG
VL: DIVLTQSPASLAVSLGQRATISCRASESVDSYGNSFMHWYQQKPGQPPKLLIYRASNLESGIPARFSGSGSRTDFTLTINPVEADDVATYYCQQSNEDLTFG
notes: Murine monoclonal, Protein A purified
EC50 (read off the curve); GFP fluorescence (% of untreated sample) of Fpn-GFP HEK cells, 37 nM hepcidin-25 present [1]: ~2000 pM
IC50 (read off the curve); normalized ferritin (% of uninduced sample) of Fpn-GFP HEK cells, 37 nM hepcidin-25 present [2]: ~2000 pM
Kd (NT-biotin hepcidin-25 [3]): ~18 pM
Kd (K18-biotin hepcidin-25 [4]): ~7.5 pM
binding result (Mouse hepcidin-1 peptide): no binding
binding result [5]: no binding (tested: up to 2000 ng/ml)
Ka (NT-biotin hepcidin-25 [6]): 1.94e+10 M⁻¹
Req (NT-biotin hepcidin-25 [6]): 78.8 RU
kobs (NT-biotin hepcidin-25 [6]): 0.00977 s⁻¹
koff (NT-biotin hepcidin-25 [6]): 3.15e-06 s⁻¹
kon (NT-biotin hepcidin-25 [6]): 61100 M⁻¹ s⁻¹
Ka (K18-biotin hepcidin-25 [7]): 1.14e+09 M⁻¹
Req (K18-biotin hepcidin-25 [7]): 126 RU
kobs (K18-biotin hepcidin-25 [7]): 0.0102 s⁻¹
koff (K18-biotin hepcidin-25 [7]): 5.59e-05 s⁻¹
kon (K18-biotin hepcidin-25 [7]): 63700 M⁻¹ s⁻¹
Ka (K24-biotin hepcidin-25 [8]): 1.8e+08 M⁻¹
Req (K24-biotin hepcidin-25 [8]): 63.1 RU
kobs (K24-biotin hepcidin-25 [8]): 0.0086 s⁻¹
koff (K24-biotin hepcidin-25 [8]): 0.000288 s⁻¹
kon (K24-biotin hepcidin-25 [8]): 52000 M⁻¹ s⁻¹
OD 450 nm [9]: 4 OD450
OD 450 nm [10]: 4 OD450
OD 450 nm [11]: 4 OD450
OD 450 nm [12]: 4 OD450
Ka (NT-biotin hepcidin-25 [13]): 5.47e+10 M⁻¹
Kd (NT-biotin hepcidin-25 [13]): 18.3 pM
Ka (K18-biotin hepcidin-25 [14]): 1.34e+11 M⁻¹
Kd (K18-biotin hepcidin-25 [14]): 7.45 pM
Kd (K18-biotin hepcidin-25 [15]): 878 pM
Kd (K24-biotin hepcidin-25 [16]): 5540 pM
koff (NT-biotin hepcidin-25 [17]): 2.43e-05 s⁻¹
koff (K18-biotin hepcidin-25 [18]): 1.4e-05 s⁻¹
kon (NT-biotin hepcidin-25 [19]): 1.33e+06 M⁻¹ s⁻¹
kon (K18-biotin hepcidin-25 [20]): 1.88e+06 M⁻¹ s⁻¹
Kd (NT-biotin hepcidin-25 [21]): 51.6 pM
